# In PMC3245798:
# Target: soluble H ectodomain (sH, amino acids 60-617) of measles virus (measles virus) (UniProt P08362)
# Test: SPR
# UniProt P08362, sequence (P08362 60-617 limits assumed): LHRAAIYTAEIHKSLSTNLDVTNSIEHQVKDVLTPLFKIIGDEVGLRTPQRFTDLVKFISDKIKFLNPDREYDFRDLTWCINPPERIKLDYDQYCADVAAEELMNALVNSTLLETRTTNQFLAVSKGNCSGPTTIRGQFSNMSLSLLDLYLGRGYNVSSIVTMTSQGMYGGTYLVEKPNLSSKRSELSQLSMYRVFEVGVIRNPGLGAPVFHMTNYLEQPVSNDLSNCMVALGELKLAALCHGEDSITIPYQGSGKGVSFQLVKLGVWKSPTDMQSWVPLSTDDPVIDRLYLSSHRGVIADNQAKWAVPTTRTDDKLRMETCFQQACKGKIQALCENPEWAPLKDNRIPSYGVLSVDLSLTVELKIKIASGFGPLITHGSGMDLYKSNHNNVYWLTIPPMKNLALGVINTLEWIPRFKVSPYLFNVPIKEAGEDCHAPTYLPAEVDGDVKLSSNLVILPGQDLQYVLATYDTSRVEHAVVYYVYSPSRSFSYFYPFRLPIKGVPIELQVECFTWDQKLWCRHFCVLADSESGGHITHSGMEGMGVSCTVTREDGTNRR
substance,measurement,value
soluble nectin-4 ectodomain fused to human IgG1 Fc domain (N4VCC-Fc) (from UniProt Q96NY8 32-349) (Fc fusion),kon relative to that of SLAM and H,5 fold
